# Assay results reported in the supplement of paper PMC12042874.
# ± gives the uncertainty stated by the source.
# Assay: amyloid nucleation score (Sup35N fusion, yeast selection) (log enrichment); library NNK3; higher = more nucleation; inactive = no reads after selection
# Outline: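 After 24 hours of induction with 100 μM copper sulfate, psi-negative yeast expressing peptides of 20 random codons fused to Sup35N were grown for 7 days at 30°C on medium lacking adenine and uracil. Input and output plasmid inserts were sequenced with Illumina, and sequences with under 100 input reads were discarded. Scores for nucleation are the DiMSum log enrichment of output over input reads, centred on the mode score of non-aggregating sequences.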
row,Substance,amyloid nucleation score
1,LELRYCLFADPMI,inactive
2,VIVTVVSPTSMRNGDTRMQI,inactive
3,RAIGLGAFGIRRGGTRKWNE,-1.06 ± 2.5
4,TNINSYGLKIESGGWNQLN,inactive
5,IRSCIIRSFTYMLGLH,inactive
6,VCRRTGSKITFGQWKVYFSS,inactive
7,KANFNVSVGKSVHATCLLTL,inactive
8,YILNC,inactive
9,REMFASPSIGTALRR,inactive
10,KEADSVNDRLVNLLMHGTLC,inactive
11,RLNWGFTLA,inactive
12,VMFCFKRHLL,0.922 ± 0.15
13,NLVWICFFNGRNYLSMRDRA,1.34 ± 0.15
14,YGRRMAHAGGVTGYGNLWCH,inactive
15,RSTRIGLIYYMGMSATCTWG,inactive
16,FKVNLDVP,-0.263 ± 1.4
17,QTNIWYSGPIGSYHC,inactive
18,MALSRILTALVVLLLTVVVC,inactive
19,SIYFWCS,2.09 ± 0.065
20,DCVRVRVLKSGTYLLYRSEA,inactive
21,YTNALPAITFVVIGHLAIQ,2.64 ± 0.068
22,EHFRGRVLVRCLL,inactive
23,FYYSWSVFCICMYR,inactive

row,Substance,amyloid nucleation score
1,VSLGVNRGG,inactive
2,SSITRGLHVRKTSVSTLGV,inactive
3,LIKVTS,inactive
4,NSNSI,inactive
5,FTAQRGSTCHPYVRKHEYI,inactive
6,ASILEFPRSTKSTSLGRSGR,inactive
7,CHASRSGIKLLLSIAAWTCI,inactive
8,FWMRFKHDW,1.29 ± 0.16
9,SVVFLLRIAWYWGLWIVLLL,inactive
10,KNERVWVSRWETFKLHCSRV,inactive
11,GSPFYIFRVINLYT,2.93 ± 0.049
12,RGMCV,inactive
13,GYLYDFLPCP,-0.497 ± 0.7
14,QNNRHISHLGLQGDEQALVY,inactive
15,MLCHLVMTSSLSRFLDRGFR,1.26 ± 0.1
16,IRERGLYEMNPYWCRGRKSM,inactive
17,HSDKCDCSAVDDLLRRVVL,inactive
18,CVTYSYCYCQANHFHCRCQQ,2.88 ± 0.062
19,NYKVRLNQDFENRHRYSMDT,inactive
20,SSSSMFALLPICY,inactive
21,LMFDVFLMSTFVFDNL,inactive
22,KAWETWAITTRSWKMFIRCL,0.046 ± 0.96
23,LCVRFARMSGSAHLVESYVD,inactive

row,Substance,amyloid nucleation score
1,VMSCYAYYFTTRQDFPFLWD,inactive
2,KYITHLFFFILSERYCWFPM,-0.341 ± 0.56
3,PSTEI,inactive
4,NNLFWHNAVCLGALEEYLSK,inactive
5,VVSIYVGSYMSIICKS,1.95 ± 0.059
6,RRAVVLSVRGWRSAVTSRFS,inactive
7,QCRYRRSST,inactive
8,FFYNYSRSGLCYIIFSESPV,1.33 ± 0.095
9,LWYGKYFFIDKRQA,0.359 ± 0.23
10,RVQIKVDGVSVHTDFSDWRS,1.8 ± 0.086
11,WIRIIQLNVSERGNRVGSYC,0.37 ± 0.5
12,VELSNVFWGERYIKGLLTDL,inactive
13,YSVTAHPLDHTNPRGNYPDH,inactive
14,SSFLKQLLGSVVNSVNVATV,inactive
15,DSDVWEPCFELEESKL,inactive
16,FSAPL,inactive
17,HGIRYTCWRWECSNVGGSSS,inactive
18,KQCIFNISLCSS,0.008 ± 0.42
19,IQYRGYGYMNSIWYGVERFF,0.626 ± 0.28
20,YIIFVNKLSSPYFVT,1.06 ± 0.19
21,IHDMVQYERCDNRNSNRVHE,inactive
22,YSFSNVLVLGSTGPGTSSQA,inactive
23,MYSNVDQFNI,-0.257 ± 0.47

row,Substance,amyloid nucleation score
1,SGLDFAYLDECSREGSVYAG,inactive
2,LFVIYISDIAPTGYQVQNDI,inactive
3,IFTHVVEEFS,inactive
4,RPMRDCIGHSQS,inactive
5,GNNCPRVSIFNREAKIDNVL,inactive
6,SWSTSNVVLNL,1.99 ± 0.072
7,AFFTFGAPCIQDNESGDRGG,inactive
8,GYKATQLLSGGPYNLCVGGT,inactive
9,SLNLEENLSFHGVCRMYFNE,inactive
10,IRLTVWDVNRDCR,inactive
11,NYLRLFLISIAYKSVLSVML,inactive
12,LIFPWDLRKGAHHPGLRSCI,inactive
13,VSNHSIDIGRLRLGFTC,inactive
14,LYYNYRGGYVYKNRDEVTLF,inactive
15,APFCVRGSWELRQVFRM,-0.13 ± 0.77
16,HSSVDIQRFCIFYINQCVPK,2.45 ± 0.072
17,SVSPCSTHFLMSFERYVRGT,inactive
18,GRRYRKFDNTGGNSPK,inactive
19,YKHVARLEP,inactive
20,LDTLLVYHFRKERVLNTGVN,inactive
21,REFPRGWLLGLLCFRLYLLE,inactive
22,SDDDSYLWSSLFQA,inactive
23,DFGHVIQSSWNSMNSAQSVA,inactive

row,Substance,amyloid nucleation score
1,MLDFICAVFSVKNWVGICFV,inactive
2,FEVWRTGLCDRARGTVNRLK,inactive
3,VSEMCIMSCTHIVGDCSWIR,inactive
4,FWGFAFPFTSHGGPKNLEES,inactive
5,IMQFGDFYIIQRERRSYVLW,2.25 ± 0.087
6,TWLSFIRLNMMPINTSTCYP,inactive
7,IKAVSYTVSVSPPCFSSKSH,0.402 ± 0.18
8,RLRFLRT,inactive
9,SFHTSGSNKGYCCGVMWMDK,inactive
10,FYSTAMCGED,inactive
11,WISNTRCVLFVGN,inactive
12,KAPVVWYDMEARQKCVRGGG,inactive
13,CDVLYRILRYIYSGKLLFSE,inactive
14,LYDCRRGNLVTSCWNKCCLP,inactive
15,IHSDLTVSCNIYWKSY,0.922 ± 0.14
16,NCRSFCC,0.905 ± 0.094
17,LWLMVFWKINGNMLGCHPEM,inactive
18,FGWLYNLNVSDIGTGD,inactive
19,YMLTEFYLFPDRILRHRRTD,inactive
20,ADFDDHDYLVMCDWWINMHS,inactive
21,HYTVDANNIVFYILH,3.11 ± 0.076
22,MILLGKNSLDPEGKGVCHVW,inactive
23,NSVVSGFLGHVLVGRRCGHR,inactive

row,Substance,amyloid nucleation score
1,FWMILMDMLFMRLGSL,inactive
2,YSSGGYLTRVRRKGSMYRAL,inactive
3,MHFVELLRLALVL,inactive
4,LYSVFVRRSCLNG,inactive
5,FMGTRTKLMALVYQEELSRS,inactive
6,IYWDTRLGFCAYAKC,inactive
7,LGWLLVTNWTSTYAGSLHDG,inactive
8,MIFKKDSLGMILHFHHYFYN,inactive
9,GVRNGPKLILFYLRSWHEAY,inactive
10,IVSTWG,inactive
11,NYYLGETLA,inactive
12,TVTVPG,inactive
13,GSYRLLY,inactive
14,LNRVRSS,-0.108 ± 0.7
15,FLGGRTLTSLPE,inactive
16,CMFSPPCDLRGETVLRRPSL,0.143 ± 0.62
17,VILLSLAY,inactive
18,AKHGLVDAQRALGISYQKNK,0.967 ± 0.11
19,LGSGEATE,inactive
20,SDFRTRTNIQYLQYKNNSSP,inactive
21,WRVAYET,inactive
22,YHGCPERVWLSA,inactive
23,SLMDNVLSFHFVVANWNTLD,inactive

row,Substance,amyloid nucleation score
1,DFGVYNEHHGYLILGIKRDQ,inactive
2,KMGTRGWLSDIAGNMVYVLC,inactive
3,SLRDVVV,inactive
4,VAPLAILDRKSKSLVGNNMA,inactive
5,LLDNITLFVWNYMVSSEWKL,inactive
6,AMGLACGLDGSAVFGCMLTT,inactive
7,CMNIRPMATLTESSS,inactive
8,HIVKIRSG,inactive
9,ISVRFLCNYCRRVYIRRCAV,inactive
10,TPCNRREISWFVFSLPA,inactive
11,CEMVCSTVIPIEVTSWLVMV,inactive
12,FNMCLASQAVIADLWVVFSW,-0.054 ± 1.3
13,STNPPNRL,inactive
14,SSDTGRCIKVDALRCRMGSR,inactive
15,IPFGLANSRFNVFASVMSDC,inactive
16,LWVRKDERGEYI,inactive
17,RIVNALTSCDLFSCGSVLRR,1.92 ± 0.1
18,NWKLPGFPNLVQRITTDSPL,inactive
19,TCTYCRFRLSSLVSW,0.366 ± 0.42
20,CWTAPLSKFLRVWVTIPYNL,inactive
21,NVRFDGKVWLG,0.744 ± 0.31
22,SVLHMWNLRVVLHECYVYHI,inactive
